Reference: patent US20160257760A1 (OXFORD BIOTHERAPEUTICS, published 2016)

What was measured:
Assay in all cases: peptide microarray, 1 µg/mL LY75_A1, anti-human IgG Alexa 647
EVKDCRSF = biological target: T1, EVKDCRSF
T1 peptide: EVKDCRSF
Method: (§1) The chip comprised three panels such that the experiment was performed in triplicate. […] The binding assay was performed under the following conditions:—The microarray comprising the contiguous peptides in triplicate was washed with 1 mL of binding buffer at 4° C. for 20 min. […] The array was again washed with 0.5 mL of washing buffer at 4° C. for 30 min.

RSFKALSI = biological target: T2, RSFKALSI
T2 peptide: RSFKALSI
Method: as §1

QKYSEVKS = biological target: T3, QKYSEVKS
T3 peptide: QKYSEVKS
Method: as §1

SERHFVSL = biological target: T4, SERHFVSL
T4 peptide: SERHFVSL
Method: as §1

SCYKVFHA = biological target: T5, SCYKVFHA
T5 peptide: SCYKVFHA
Method: as §1

SLSCYKVF = biological target: T6, SLSCYKVF
T6 peptide: SLSCYKVF
Method: as §1

CYKVFHAE = biological target: T7, CYKVFHAE
T7 peptide: CYKVFHAE
Method: as §1

LSCYKVFH = biological target: T8, LSCYKVFH
T8 peptide: LSCYKVFH
Method: as §1

GSRWIQYK = biological target: T9, GSRWIQYK
T9 peptide: GSRWIQYK
Method: as §1

WIQYKGHC = biological target: T10, WIQYKGHC
T10 peptide: WIQYKGHC
Method: as §1

YKSDQALH = biological target: T11, YKSDQALH
T11 peptide: YKSDQALH
Method: as §1

KSDQALHS = biological target: T12, KSDQALHS
T12 peptide: KSDQALHS
Method: as §1

CYKSDQAL = biological target: T13, CYKSDQAL
T13 peptide: CYKSDQAL
Method: as §1

RWIQYKGH = biological target: T14, RWIQYKGH
T14 peptide: RWIQYKGH
Method: as §1

QYKGHCYK = biological target: T15, QYKGHCYK
T15 peptide: QYKGHCYK
Method: as §1

HCYKSDQA = biological target: T16, HCYKSDQA
T16 peptide: HCYKSDQA
Method: as §1

YKGHCYKS = biological target: T17, YKGHCYKS
T17 peptide: YKGHCYKS
Method: as §1

NGSRWIQY = biological target: T18, NGSRWIQY
T18 peptide: NGSRWIQY
Method: as §1

SRWIQYKG = biological target: T19, SRWIQYKG
T19 peptide: SRWIQYKG
Method: as §1

TYSNFHPL = biological target: T20, TYSNFHPL
T20 peptide: TYSNFHPL
Method: as §1

YSNFHPLL = biological target: T21, YSNFHPLL
T21 peptide: YSNFHPLL
Method: as §1

FTYSRYPW = biological target: T22, FTYSRYPW
T22 peptide: FTYSRYPW
Method: as §1

HFTYSRYP = biological target: T23, HFTYSRYP
T23 peptide: HFTYSRYP
Method: as §1

HRFPVTFG = biological target: T24, HRFPVTFG
T24 peptide: HRFPVTFG
Method: as §1

YPWHRFPV = biological target: T25, YPWHRFPV
T25 peptide: YPWHRFPV
Method: as §1

WHRFPVTF = biological target: T26, WHRFPVTF
T26 peptide: WHRFPVTF
Method: as §1

YSRYPWHR = biological target: T27, YSRYPWHR
T27 peptide: YSRYPWHR
Method: as §1

RYPWHRFP = biological target: T28, RYPWHRFP
T28 peptide: RYPWHRFP
Method: as §1

SRYPWHRF = biological target: T29, SRYPWHRF
T29 peptide: SRYPWHRF
Method: as §1

DHFTYSRY = biological target: T30, DHFTYSRY
T30 peptide: DHFTYSRY
Method: as §1

DDHFTYSR = biological target: T31, DDHFTYSR
T31 peptide: DDHFTYSR
Method: as §1

VYFHQHSI = biological target: T32, VYFHQHSI
T32 peptide: VYFHQHSI
Method: as §1

AVYFHQHS = biological target: T33, AVYFHQHS
T33 peptide: AVYFHQHS
Method: as §1

EAVYFHQH = biological target: T34, EAVYFHQH
T34 peptide: EAVYFHQH
Method: as §1

YFHQHSIL = biological target: T35, YFHQHSIL
T35 peptide: YFHQHSIL
Method: as §1

Measured: binding result

B1: LY75_A1 monoclonal antibody (antibody, V domains shown)
VH: EVQLVESGGGLVKPGGSLRLSCAASGFTYSNAWMSWVRQAPGKGLEWVGRIKSKTDGGTTDYAAPVQGRFTISRDDSKNTLYLQMNSLKTEDTAVYYCTIFGVVSFDYWGQGTLVTVSS
VL: DVQMTQSPSSLSASVGDRVTITCRASQSISDYLSWYQQRPGKAPNLLIYAASNLKTGVPSRFSGSGSGTDFTLTISTLQPEDFATYYCQQSYRSPWTFGQGTKVEIKR
notes: also called LY75A1 antibody; LY75_A1 antibody
binds: EVKDCRSF | SERHFVSL | SCYKVFHA | SLSCYKVF | LSCYKVFH | GSRWIQYK | YKSDQALH | RWIQYKGH | QYKGHCYK | YKGHCYKS | NGSRWIQY | SRWIQYKG | TYSNFHPL | YSNFHPLL | HFTYSRYP | HRFPVTFG | YPWHRFPV | WHRFPVTF | YSRYPWHR | RYPWHRFP | SRYPWHRF | DHFTYSRY | DDHFTYSR | VYFHQHSI | AVYFHQHS | EAVYFHQH | YFHQHSIL
no binding (tested: 1 µg/mL): RSFKALSI | QKYSEVKS | CYKVFHAE | WIQYKGHC | KSDQALHS | CYKSDQAL | HCYKSDQA | FTYSRYPW
